“And” between values parts separate entries of the source, which are not always exact repeats. Identical values can stand only once.
How the values were obtained:
Assay in all cases: co-sedimentation
[1] = target: F-actin first mixed with high mol wt TMs (rabbit | rat) (UniProt P68135)
[2] = target: F-actin first mixed with low mol wt TMs (rabbit | rat) (UniProt P68135)
F-actin (rabbit) = F-actin (rabbit) (UniProt P68135)
[3] = target: F-actin with 83-kD protein (rabbit | rat) (UniProt P68135)

Sequence of 83-kD nonmuscle caldesmon (Q62736 whole entry): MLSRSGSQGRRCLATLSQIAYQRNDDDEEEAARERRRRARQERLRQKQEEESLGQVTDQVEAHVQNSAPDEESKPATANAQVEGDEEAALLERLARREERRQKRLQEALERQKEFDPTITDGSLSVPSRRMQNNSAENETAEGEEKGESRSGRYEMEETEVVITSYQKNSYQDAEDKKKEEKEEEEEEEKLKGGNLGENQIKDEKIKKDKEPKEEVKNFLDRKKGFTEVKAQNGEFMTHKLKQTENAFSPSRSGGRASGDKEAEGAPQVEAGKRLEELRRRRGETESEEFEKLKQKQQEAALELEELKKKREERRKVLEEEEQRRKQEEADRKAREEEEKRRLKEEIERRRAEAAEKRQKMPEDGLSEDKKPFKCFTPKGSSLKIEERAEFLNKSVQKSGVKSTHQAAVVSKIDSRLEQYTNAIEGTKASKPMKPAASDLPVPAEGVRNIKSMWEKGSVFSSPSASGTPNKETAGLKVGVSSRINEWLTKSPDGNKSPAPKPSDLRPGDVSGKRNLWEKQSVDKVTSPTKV

Substance: 83-kD nonmuscle caldesmon (from UniProt Q62736 1-531) (natural protein)
- stoichiometry N (actin per 83-kD protein) [1]: 6
- stoichiometry N (actin per 83-kD protein) [2]: 6

Substance: high mol wt TMs (a mixture of TM-1 [40,000] and TM-2 [36,500])
- percent of the TM mass bound to actin (50 mM KCl, no 83-kD protein) (F-actin (rabbit)): < 10%
- percent of the TMs bound to actin (50 mM KCl, no 83-kD protein) (F-actin (rabbit)): 10%
- fold increase of TM binding to actin against no 83-kD protein (50 mM KCl) [3]: 10 fold

Substance: low mol wt TMs (a mixture of TM-4 [32,400] and TM-5 [32,000])
- Ka (F-actin (rabbit)): 440000 M⁻¹
- TM bound to actin (0.12 mg/ml TMs, no 83-kD protein) (F-actin (rabbit)): 0.4 µmol
- molar ratio of TMs to sedimentable actin (0.06 mg/ml TMs, no 83-kD protein) (F-actin (rabbit)): 157 actin per TM
- molar ratio of TMs to sedimentable actin (0.12 mg/ml TMs, no 83-kD protein) (F-actin (rabbit)): 29 actin per TM
- percent of actin saturated with TMs (0.06 mg/ml TMs, no 83-kD protein) (F-actin (rabbit)): 3% and 4%
- percent of actin saturated with TMs (0.12 mg/ml TMs, no 83-kD protein) (F-actin (rabbit)): 20%
- percent of the TM mass bound to actin (0.06 mg/ml TMs, no 83-kD protein) (F-actin (rabbit)): 5% and 7%
- stoichiometry N (F-actin (rabbit)): 6 actin per TM
- Ka [3]: 1.5e+06 M⁻¹
- molar ratio of TMs to sedimentable actin (0.06 mg/ml TMs, 83-kD protein added) [3]: 14 actin per TM

Source: PMC2115152
